Data published in paper PMC6270800, “The Effect of Mini-PEG-Based Spacer Length on Binding and Pharmacokinetic Properties of a ^68Ga-Labeled NOTA-Conjugated Antagonistic Analog of Bombesin” (Molecules, 2014).

Key:
[1] = system: PC-3 cells; assay: Cellular uptake and internalization assay, PC-3 cells; assay type: cell-based, human; conditions: ^111In-labeled, 24 h continuous incubation, 2 nM, 37 °C
Protocol: (§1) GRPR expressing human PC cell line PC-3 and human BC cell line BT-474 (ATCC) were cultured in RPMI media complemented with 10% FBS, 2 mM L-glutamine and PEST (penicillin 100 IU/mL) (all from Biochrom AG, Berlin, Germany). This media is referred as complete media in the text. In all in vitro experiments, cells were incubated in complete medium and detached using trypsin-EDTA solution (0.25% trypsin, 0.02% EDTA in buffer; Biochrom AG). All experiments were performed in triplicate and 1 × 10^6 cells/dish were seeded one day before the experiment.
(§2) At predetermined time points, the incubation media was discarded, the cells were washed and the membrane-bound and internalized radioactivity were collected using the method described earlier.

[2] = assay type: physicochemical; conditions: pH 7.4
Protocol: Aliquots of 50 μL were taken from each phase, and their radioactivity was measured in an automated gamma-counter with 3-inch NaI(Tl) detector (1480 WIZARD, Wallac OyTurku, Finland). Each measurement was repeated nine times. The distribution coefficient was calculated as the average log of a ratio of the radioactivity in the octanol and the PBS fractions.

[3] = system: BT-474 cells; assay: Cellular uptake and internalization assay, BT-474 cells; assay type: cell-based, human; conditions: ^111In-labeled; BT474 cells; 24 h continuous incubation, 2 nM, 37 °C
Protocol: as §1, §2

[4] = in vivo; conditions: female, NMRI, mouse, iv, 45 pmol, total radioactivity
Protocol: The biodistribution of ^68Ga-labeled NOTA-PEGn-RM26 was evaluated in female NMRI mice (weight: 30 ± 3 g).
Female NMRI mice (3 mice per data point) were injected with 45 pmol of ^68Ga-NOTA-PEGn-RM26 (350 or 700 kBq, 100 µL in PBS) into the tail vein. The administrated peptide dose was adjusted to 45 pmol by dilution with non-labeled NOTA-PEGn-RM26. The mice were euthanized at 1 and 2 h p.i. by intraperitoneal injection of a Ketalar-Rompun solution (10 mg/mL Ketalar and 1 mg/mL Rompun; 20 µL of solution per gram of body weight). Blood samples were collected by heart puncture. The organs of interest were collected, weighed, and their radioactivity content was measured in the gamma-counter. The organ uptake values are expressed as %ID/g except for gastrointestinal (GI) tract (with content) and carcass in which data are presented as %ID per whole sample.

[5] = system: BT-474 xenografts; assay type: in vivo, BALB/c nu/nu mice; conditions: BT-474 tumors; 2 h p.i.
Protocol: (§3) To study tumor targeting, female BALB/c nu/nu mice bearing PC-3 and BT-474 xenografts (4 mice per data point) were intravenously injected with 45 pmol of ^68Ga-NOTA-PEG3-RM26 (700 kBq, 100 µL in PBS). The mice were euthanized at 2 h p.i. and the organ radioactivity content was measured and evaluated as described above. To test the in vivo binding specificity, a group of animals was co-injected with 20 nmol of unlabeled peptide, and biodistribution was measured at 2 h p.i.

[6] = system: PC-3 xenografts; assay type: in vivo, BALB/c nu/nu mice; conditions: PC-3 tumors; 2 h p.i.
Protocol: as §3

Row | Structure (SMILES) | Internalization rate, % internalized radioactivity from total cell associated [1] | logD [2] | Internalization rate, % internalized radioactivity from total cell associated [3] | tissue uptake dose at 1 h ([4]; Uptake in GI (with content)) | tissue uptake dose at 2 h ([4]; Uptake in GI (with content)) | tissue uptake dose at 1 h ([4]; Uptake in carcass) | tissue uptake dose at 2 h ([4]; Uptake in carcass) | LogD of ^68Ga-NOTA-PEGn-RM26 [2] | Decrease of tumor uptake by co-injection of non-labeled peptide [5] | Decrease of tumor uptake by co-injection of non-labeled peptide [6]
1 | CC(C)C[C@H](NC(=O)C[C@H](O)[C@H](CC(C)C)NC(=O)[C@H](Cc1c[nH]cn1)NC(=O)CNC(=O)[C@@H](NC(=O)[C@H](C)NC(=O)[C@H](Cc1c[nH]c2ccccc12)NC(=O)[C@H](CCC(N)=O)NC(=O)[C@@H](Cc1ccccc1)NC(=O)CCOCCOCCOCCNC(=O)CN1CCN(CC(=O)O)CCN(CC(=O)O)CC1)C(C)C)C(N)=O [PEG3] | 31 ± 2% | -2.47 ± 0.06 | 32 ± 2% | 3.7 ± 0.8 %ID | 2.5 ± 0.7 %ID | 2.1 ± 0.4 %ID | 0.7 ± 0.1 %ID |  |  | 
2 | CC(C)C[C@H](NC(=O)C[C@H](O)[C@H](CC(C)C)NC(=O)[C@H](Cc1c[nH]cn1)NC(=O)CNC(=O)[C@@H](NC(=O)[C@H](C)NC(=O)[C@H](Cc1c[nH]c2ccccc12)NC(=O)[C@H](CCC(N)=O)NC(=O)[C@@H](Cc1ccccc1)NC(=O)COCCOCCNC(=O)CN1CCN(CC(=O)O)CCN(CC(=O)O)CC1)C(C)C)C(N)=O [PEG2] |  |  |  | 4 ± 2 %ID | 2.88 ± 0.06 %ID | 4 ± 1 %ID | 0.9 ± 0.4 %ID | −2.27 ± 0.07 |  | 
3 | CC(C)C[C@H](NC(=O)C[C@H](O)[C@H](CC(C)C)NC(=O)[C@H](Cc1c[nH]cn1)NC(=O)CNC(=O)[C@@H](NC(=O)[C@H](C)NC(=O)[C@H](Cc1c[nH]c2ccccc12)NC(=O)[C@H](CCC(N)=O)NC(=O)[C@@H](Cc1ccccc1)NC(=O)CCOCCOCCOCCOCCNC(=O)CN1CCN(CC(=O)O)CCN(CC(=O)O)CC1)C(C)C)C(N)=O [PEG4] |  | -2.49 ± 0.1 |  | 3.5 ± 0.6 %ID | 3.1 ± 0.9 %ID | 2.3 ± 0.5 %ID | 1.2 ± 0.3 %ID |  |  | 
4 | CC(C)C[C@H](NC(=O)C[C@H](O)[C@H](CC(C)C)NC(=O)[C@H](Cc1c[nH]cn1)NC(=O)CNC(=O)[C@@H](NC(=O)[C@H](C)NC(=O)[C@H](Cc1c[nH]c2ccccc12)NC(=O)[C@H](CCC(N)=O)NC(=O)[C@@H](Cc1ccccc1)NC(=O)CCOCCOCCOCCOCCOCCOCCNC(=O)CN1CCN(CC(=O)O)CCN(CC(=O)O)CC1)C(C)C)C(N)=O [^68Ga-NOTA-PEG6-RM26, metal not drawn] |  | -2.5 ± 0.09 |  |  |  |  |  |  |  | 
5 | CC(C)C[C@H](NC(=O)C[C@H](O)[C@H](CC(C)C)NC(=O)[C@H](Cc1c[nH]cn1)NC(=O)CNC(=O)[C@@H](NC(=O)[C@H](C)NC(=O)[C@H](Cc1c[nH]c2ccccc12)NC(=O)[C@H](CCC(N)=O)NC(=O)[C@@H](Cc1ccccc1)NC(=O)CCOCCOCCOCCOCCOCCOCCNC(=O)CN1CCN(CC(=O)O)CCN(CC(=O)O)CC1)C(C)C)C(N)=O [PEG6] | 35 ± 2% |  |  | 2.8 ± 0.2 %ID | 1.8 ± 0.5 %ID | 3 ± 1 %ID | 0.71 ± 0.05 %ID | −2.50 ± 0.09 |  | 
6 | CC(C)C[C@H](NC(=O)C[C@H](O)[C@H](CC(C)C)NC(=O)[C@H](Cc1c[nH]cn1)NC(=O)CNC(=O)[C@@H](NC(=O)[C@H](C)NC(=O)[C@H](Cc1c[nH]c2ccccc12)NC(=O)[C@H](CCC(N)=O)NC(=O)[C@@H](Cc1ccccc1)NC(=O)COCCOCCNC(=O)CN1CCN(CC(=O)O)CCN(CC(=O)O)CC1)C(C)C)C(N)=O [^68Ga-NOTA-PEG2-RM26, metal not drawn] |  | -2.27 ± 0.07 |  |  |  |  |  |  |  | 
7 | CC(C)C[C@H](NC(=O)C[C@H](O)[C@H](CC(C)C)NC(=O)[C@H](Cc1c[nH]cn1)NC(=O)CNC(=O)[C@@H](NC(=O)[C@H](C)NC(=O)[C@H](Cc1c[nH]c2ccccc12)NC(=O)[C@H](CCC(N)=O)NC(=O)[C@@H](Cc1ccccc1)NC(=O)CCOCCOCCOCCNC(=O)CN1CCN(CC(=O)O)CCN(CC(=O)O)CC1)C(C)C)C(N)=O [^68Ga-NOTA-PEG3-RM26, metal not drawn] |  |  |  |  |  |  |  |  | more than 7 fold | ~5 fold
